The results in this text go back to patent publication US20170349647A1 (PANASONIC INTELLECTUAL PROPERTY MANAGEMENT, published 2017).

A word on the Kd: it is the constant that tells how readily two partners part at equilibrium.

This experiment addresses recombinant nucleoprotein (NP) protein derived from influenza virus H1N1 to which a Flag tag was fus (influenza virus H1N1).

Sequence of recombinant nucleoprotein (NP) protein derived from influenza virus H1N1 to which a Flag tag was fus (influenza virus H1N1) (P03466 whole entry): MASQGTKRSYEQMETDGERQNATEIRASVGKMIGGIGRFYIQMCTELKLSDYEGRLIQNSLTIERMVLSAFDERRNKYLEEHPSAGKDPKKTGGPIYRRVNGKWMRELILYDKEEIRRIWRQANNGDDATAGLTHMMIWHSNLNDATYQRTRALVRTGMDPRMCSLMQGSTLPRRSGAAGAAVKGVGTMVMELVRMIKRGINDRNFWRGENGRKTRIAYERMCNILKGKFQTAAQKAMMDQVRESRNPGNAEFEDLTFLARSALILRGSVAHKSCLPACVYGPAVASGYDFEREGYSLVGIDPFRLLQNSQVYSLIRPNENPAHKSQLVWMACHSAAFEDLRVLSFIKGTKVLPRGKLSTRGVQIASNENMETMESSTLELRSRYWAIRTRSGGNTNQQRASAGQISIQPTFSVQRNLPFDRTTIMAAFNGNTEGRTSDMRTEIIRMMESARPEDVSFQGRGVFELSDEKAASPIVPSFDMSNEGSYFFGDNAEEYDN

B1: VHH antibody consisting of the amino acid sequence represented by SEQ ID NO: 08 (VHH)
VHH: QVQLVESGGGLVQAGGSLRLSCAASRTIFNPNVMGWYRQAPGKQRELVADISLSGSTNYADSVKGRFTISRDNAKNTMYLQMNSLKPEDTAVYYCNTNAISGAPGRYWGQGTQVTVSS
As to B1, the Kd was determined as 0.236 nM.
